In experiment [1] the target is T1, cyno FGFR2b on cells (cyno, UniProt A0A2K5TL97 22-821). The experiment in a line: flow cytometry, cyno FGFR2b OE cells. A general note: A flow cytometer gives signals particle by particle.
Experiment [2] addresses T1, cyno FGFR2b on cells. The experiment can be described thus: flow cytometry, Expi293 cells overexpressing cyno FGFR2b.
The target of experiment [3] is T2, cyno FGFR2b protein (recombinant) (cyno, UniProt A0A2K5TL97 22-380). The experiment can be described thus: SPR, antibody captured by anti-human Fc, cyno FGFR2b.
For experiment [4], the target named is T2, cyno FGFR2b protein (recombinant). The experiment can be described thus: ELISA, plate-coated cyno FGFR2b. A general note: ELISA stands for enzyme-linked immunosorbent assay.

T1 sequence (A0A2K5TL97 entry or part of it): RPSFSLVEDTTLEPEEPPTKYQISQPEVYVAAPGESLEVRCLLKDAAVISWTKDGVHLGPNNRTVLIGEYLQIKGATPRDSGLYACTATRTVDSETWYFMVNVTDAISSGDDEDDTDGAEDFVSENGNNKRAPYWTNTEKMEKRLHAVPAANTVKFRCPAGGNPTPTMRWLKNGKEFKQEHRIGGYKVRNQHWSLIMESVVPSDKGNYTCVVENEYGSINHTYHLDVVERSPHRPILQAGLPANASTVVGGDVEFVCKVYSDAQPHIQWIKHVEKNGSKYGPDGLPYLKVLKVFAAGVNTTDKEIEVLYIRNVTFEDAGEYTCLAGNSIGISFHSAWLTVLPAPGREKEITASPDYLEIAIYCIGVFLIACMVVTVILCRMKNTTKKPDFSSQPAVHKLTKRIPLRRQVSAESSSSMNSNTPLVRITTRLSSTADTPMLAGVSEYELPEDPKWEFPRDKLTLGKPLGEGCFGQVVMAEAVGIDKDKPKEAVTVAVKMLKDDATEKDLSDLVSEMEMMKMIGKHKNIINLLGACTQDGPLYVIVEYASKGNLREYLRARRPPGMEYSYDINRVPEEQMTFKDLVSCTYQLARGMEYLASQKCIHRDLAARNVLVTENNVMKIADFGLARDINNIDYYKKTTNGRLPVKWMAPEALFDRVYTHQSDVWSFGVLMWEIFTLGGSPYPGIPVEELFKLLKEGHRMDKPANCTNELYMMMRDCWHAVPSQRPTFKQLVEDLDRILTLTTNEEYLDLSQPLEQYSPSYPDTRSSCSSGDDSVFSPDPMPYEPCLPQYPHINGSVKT

B1: BGA1421 (antibody, human IgG1, kappa, V domains shown)
VH: QVQLVQSGAEVKKPGSSVKVSCKASGYIFTTYNVHWVRQAPGQGLEWIGSIYPDNGDTSYNQNFKGRATITADKSTSTAYMELSSLRSEDTAVYYCARGDFAYWGQGTLVTVSS
VL: DIQMTQSPSSLSASVGDRVTITCKASQGVSNDVAWYQQKPGKAPKLLIYSASYRYTGVPSRFSGSGSGTDFTFTISSLQPEDIATYYCQQHSTTPYTFGQGTKLEIKR
notes: also called bemarituzumab; comparator antibody alone (un-conjugated)
As usually defined, the EC50 is the concentration giving half of the maximal effect. For B1, it took 0.49 nM to reach a half-maximal effect with cyno FGFR2b on cells [1] (EC50).

B2: BGA2354 (antibody, human IgG1, lambda, V domains shown)
VH: EVQLLESGGGLVQPGGSLRLSCAASGFTFRTSGMHWVRQAPGKGLEWVAVISYDGSNKYYADSVKGRFTISRDNSKNTLYLQMNSLRAEDTAVYYCARESPGYDFEYWGQGTLVTVSS
VL: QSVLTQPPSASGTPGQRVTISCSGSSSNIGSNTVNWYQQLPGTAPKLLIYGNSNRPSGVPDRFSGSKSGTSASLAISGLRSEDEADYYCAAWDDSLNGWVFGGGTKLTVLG
notes: also called M047 (Bayer; BAY1895344)
The molecule B2 displayed an EC50 in the experiment with cyno FGFR2b on cells [1] of 0.34 nM.

B3: BGAh9239 (antibody, human IgG1, kappa, V domains shown)
VH: QVQLVQSGAEVKKPGSSVKVSCKASGYTFSIYWLNWVRQAPGQGLEWMGQIYPENADTNYSGKFKGRVTITADKSTSTAYMELSSLRSEDTAVYFCARGGFDYWGQGTLVTVSS
VL: DIQMTQSPSSLSASVGDRVTITCRASENIYSNLAWYQQKPGKAPKLLIYTATNLAEGVPSRFSGSGSGTDFTLTISSLQPEDFATYYCQHFYGILYTFGQGTRLEIKR
notes: also called humanized antibody developed from BGAm1823
What is called Kd is a measure of binding affinity in units of concentration. As usually defined, the koff is the first-order rate constant of dissociation. As usually defined, the kon is the rate constant with which the complex forms. Consider B3, for which, in the experiment with cyno FGFR2b on cells [2], the EC50 was 7.93 nM and the “Emax (MFI)” value is 6.88e+06 MFI. In the experiment with cyno FGFR2b on cells [1], the midpoint of the response, the EC50, lay at 1.55 nM. Further, in experiment [3], the Kd was 34 nM, the koff turned out to be 0.00272 s⁻¹ and the kon amounted to 79900 M⁻¹ s⁻¹. For the same molecule, in experiment [4], the EC50 worked out at 0.0442 nM and the “Emax (A450)” value stood at 2.93 A450.

B4: BGAm1371 (antibody, V domains shown)
VH: QVQLKQSGAELVKPGASVKLSCTASGFNIKDTYIHWVKQRPEQGLEWIGRIDPANGNTMFASEFQGKATITAYTSSNTAYMQLSSLTSGDTAVYYCARSKIHYDYDEGFAYWGQGTLVTVSS
VL: NIVLTQSPPSLAVSLGQRATVSCRASESVDDYGYSFLHWYQQKPGQPPKLLIYRASNLESGIPARFSGSGSRTDFTLTINPVETDDVATYYCQQSNQNPRTFGGGTKLEIK
notes: assays detect or capture it with anti-human IgG; also called parental mouse clone; murine parental antibody of BGAh9179
In the case of B4, in the experiment with cyno FGFR2b on cells [2], a half-maximal effect (EC50) was put at 4.73 nM and the “Emax (MFI)” value was 6.19e+06 MFI. In the experiment with cyno FGFR2b on cells [1], this molecule had a half-maximal effective concentration (EC50) of 5.02 nM. In experiment [3], the Kd turned out to be 15.7 nM, the koff was found to be 0.00125 s⁻¹ and the association rate constant (kon) is 79700 M⁻¹ s⁻¹. Moreover, in experiment [4], the EC50 worked out at 0.0245 nM and the “Emax (A450)” value was determined as 3.02 A450.

B5: BGAm1823 (antibody, V domains shown)
VH: EVQLQQSGAELVKPGASVKISCKASGYAFSIYWMNWVKQRPGKGLEWIGQIYPENGDTNYNGKFKGKATLTADKSSSTAYMHLSSLTSEDSAVYFCARGGFDYWGQGTTLTVSS
VL: NIVMTQSPASLSASVGETVTITCRASENIYSNLAWYQQKQGKSPQLLVYTATNLADGVPSRFSGSGSGTQFSLKINSLQPEDFGSYYCQHFYGILYTFGSGTRLEIK
notes: assays detect or capture it with anti-human IgG; also called murine parental antibody of BGAh9239
With B5, in the experiment with cyno FGFR2b on cells [2], a half-maximal response (EC50) required 6.27 nM and the “Emax (MFI)” value was 7.36e+06 MFI. Also, in experiment [3], the Kd is 24.6 nM, the koff turned out to be 0.0018 s⁻¹ and the kon stood at 73500 M⁻¹ s⁻¹. In experiment [4], the EC50 was determined as 0.0551 nM and the “Emax (A450)” value is 3 A450.

B6: BGAh9179 (antibody, human IgG1, kappa, V domains shown)
VH: QVQLVQSGAEVKKPGASVKVSCKASGYTITDTYIHWVRQAPGQGLEWMGRIDPAEGNTMFASEFQGRVTMTADTSTSTVYMELSSLRSEDTAVYYCARSKIHYDYDEGFAYWGQGTLVTVSS
VL: DIVLTQSPDSLAVSLGERATINCRASESVDDYGYSFLHWYQQKPGQPPKLLIYRASNLESGVPDRFSGSGSGTDFTLTISSLQAEDVAVYYCQQSNQNPRTFGGGTKVEIKR
notes: also called BGA9179; humanized antibody developed from BGAm1371
On to B6, for which, in the experiment with cyno FGFR2b on cells [2], a half-maximal effect (EC50) was put at 8.45 nM and the “Emax (MFI)” value is 6.25e+06 MFI. In experiment [3], the dissociation constant (Kd) is 20.6 nM, the koff came to 0.00172 s⁻¹ and the association rate constant (kon) turned out to be 83700 M⁻¹ s⁻¹. Also, in experiment [4], the EC50 came out at 0.0469 nM and the “Emax (A450)” value was determined as 2.95 A450.
